Measured values as given in patent US20130209454A1.

Key:
Assay in all cases: cell-based or functional assay
[1] = target: HIV-1 Env of strain R1166.c01 (HIV-1)
[2] = target: HIV-1 Env of strain 3301.v1.c24 (HIV-1)
[3] = target: HIV-1 Env of strain ZM249M.PL1 (HIV-1)
[4] = target: HIV-1 Env of strain 6535.3 (HIV-1)
[5] = target: HIV-1 strain X1193_c1 envelope (gp120) (HIV-1)
[6] = target: HIV-1 Env of strain T257-31 (HIV-1)
[7] = target: HIV-1 Env of strain T278-50 (HIV-1)
[8] = target: HIV-1 strain 703357.C02 envelope (gp120) (HIV-1)
[9] = target: HIV-1 Env of strain ZM53M.PB12 (HIV-1)
[10] = target: HIV-1 strain C3347.c11 envelope (gp120) (HIV-1)
[11] = target: HIV-1 strain P0402_c2_11 envelope (gp120) (HIV-1)
[12] = target: HIV-1 strain R1166.c01 envelope (gp120) (HIV-1)
[13] = target: HIV-1 Env of strain CNE30 (HIV-1)
[14] = target: HIV-1 Env of strain TRO.11 (HIV-1)
[15] = target: HIV-1 strain Q461.e2 envelope (gp120) (HIV-1)
[16] = target: HIV-1 strain T257-31 envelope (gp120) (HIV-1)
[17] = target: HIV-1 strain THRO4156.18 envelope (gp120) (HIV-1)
[18] = target: HIV-1 Env of strain Ce2010_F5 (HIV-1)
[19] = target: HIV-1 Env of strain P1981_C5_3 (HIV-1)
[20] = target: HIV-1 Env of strain Du172.17 (HIV-1)
[21] = target: Env of HIV-1 strain 6244_13_B5_4576 (HIV-1)
[22] = target: Env of HIV-1 strain T278-50 (HIV-1)
[23] = target: Env of HIV-1 strain 620345.c01 (HIV-1)
[24] = target: Env of HIV-1 strain CNE53 (HIV-1)
[25] = target: Env of HIV-1 strain Ce1172_H1 (HIV-1)
[26] = target: Env of HIV-1 strain HIV-001428-2.42 (HIV-1)
[27] = target: Env of HIV-1 strain CAAN5342.A2 (HIV-1)
[28] = target: Env of HIV-1 strain 231966.c02 (HIV-1)
[29] = target: Env of HIV-1 strain CAP210.2.00.E8 (HIV-1)
[30] = target: Env of HIV-1 strain HIV-16055-2.3 (HIV-1)
[31] = target: Env of HIV-1 strain X2088_c9 (HIV-1)
[32] = target: Env of HIV-1 strain 0815.v3.c3 (HIV-1)
[33] = target: Env of HIV-1 strain X2131_C1_B5 (HIV-1)
[34] = target: Env of HIV-1 strain 6240_08_TA5_4622 (HIV-1)
[35] = target: Env of HIV-1 strain Ce2060_G9 (HIV-1)
[36] = target: Env of HIV-1 strain 62357_14_D3_4589 (HIV-1)
[37] = target: Env of HIV-1 strain 9004SS_A3_4 (HIV-1)
[38] = target: Env of HIV-1 strain 191821_E6_1 (HIV-1)
[39] = target: Env of HIV-1 strain A07412M1.vrc12 (HIV-1)
[40] = target: Env of HIV-1 strain PVO.4 (HIV-1)
[41] = target: HIV-1 Env of strain BJOX028000.10.3 (HIV-1)
[42] = target: HIV-1 Env of strain HIV-0013095-2.11 (HIV-1)
[43] = target: HIV-1 Env of strain MS208.A1 (HIV-1)
[44] = target: HIV-1 Env of strain A07412M1.vrc12 (HIV-1)
[45] = target: HIV-1 Env of strain 9004SS_A3_4 (HIV-1)
[46] = target: HIV-1 Env of strain TRJO4551.58 (HIV-1)
[47] = target: HIV-1 Env of strain Ce1086_B2 (HIV-1)
[48] = target: HIV-1 Env of strain BJOX009000.02.4 (HIV-1)
[49] = target: HIV-1 Env of strain 6545.v4.c1 (HIV-1)
[50] = target: HIV-1 Env of strain X2088_c9 (HIV-1)

B1: NIH45-46^G54Y IgG (antibody, name in Kabat numbering, V domains shown)
VH: QVRLSQSGGQMKKPGESMRLSCRASGYEFLNCPINWIRLAPGRRPEWMGWLKPRYGAVNYARKFQGRVTMTRDVYSDTAFLELRSLTSDDTAVYFCTRGKYCTARDYYNWDFEHWGRGAPVTVSS
VL: EIVLTQSPATLSLSPGETAIISCRTSQSGSLAWYQQRPGQAPRLVIYSGSTRAAGIPDRFSGSRWGADYNLSISNLESGDFGVYYCQQYEFFGQGTKVQVDI
neutralization IC50 [1]: 0.24 µg/mL | neutralization IC50 [2]: 0.003 µg/mL | neutralization IC50 [3]: 0.003 µg/mL | neutralization IC50 [4]: 0.08 µg/mL | neutralization IC80 [5]: 0.024 µg/mL | neutralization IC50 [6]: 0.18 µg/mL | neutralization IC50 [7]: > 50 µg/mL | neutralization IC80 [8]: 30.6 µg/mL | neutralization IC50 [9]: 0.06 µg/mL | neutralization IC80 [10]: 0.052 µg/mL | neutralization IC80 [11]: 0.049 µg/mL | neutralization IC80 [12]: 0.84 µg/mL | neutralization IC50 [13]: 0.099 µg/mL | neutralization IC50 [14]: 0.08 µg/mL | neutralization IC80 [15]: 0.103 µg/mL | neutralization IC80 [16]: 0.67 µg/mL | neutralization IC80 [17]: 2.14 µg/mL | neutralization IC50 [18]: 0.049 µg/mL | neutralization IC50 [19]: 0.04 µg/mL

B2: NIH45-46^G54W IgG (antibody, name in Kabat numbering, V domains shown)
VH: QVRLSQSGGQMKKPGESMRLSCRASGYEFLNCPINWIRLAPGRRPEWMGWLKPRWGAVNYARKFQGRVTMTRDVYSDTAFLELRSLTSDDTAVYFCTRGKYCTARDYYNWDFEHWGRGAPVTVSS
VL: EIVLTQSPATLSLSPGETAIISCRTSQSGSLAWYQQRPGQAPRLVIYSGSTRAAGIPDRFSGSRWGADYNLSISNLESGDFGVYYCQQYEFFGQGTKVQVDI
neutralization IC50 [1]: 0.13 µg/mL | neutralization IC50 [2]: < 0.001 µg/mL | neutralization IC50 [3]: 0.002 µg/mL | neutralization IC50 [4]: 0.03 µg/mL | neutralization IC80 [5]: 0.009 µg/mL | neutralization IC50 [6]: 0.13 µg/mL | neutralization IC50 [7]: > 50 µg/mL | neutralization IC80 [8]: 17.6 µg/mL | neutralization IC50 [9]: 0.04 µg/mL | neutralization IC80 [10]: 0.028 µg/mL | neutralization IC80 [11]: 0.023 µg/mL | neutralization IC80 [12]: 0.51 µg/mL | neutralization IC50 [13]: 0.052 µg/mL | neutralization IC50 [14]: 0.04 µg/mL | neutralization IC80 [15]: 0.091 µg/mL | neutralization IC80 [16]: 0.45 µg/mL | neutralization IC80 [17]: 1.81 µg/mL | neutralization IC50 [18]: 0.038 µg/mL | neutralization IC50 [19]: 0.02 µg/mL | neutralization IC50 [20]: 0.9 µg/mL

B3: NIH45-46^G54W(HC) S28Y(LC) (antibody, V domains shown)
VH: QVRLSQSGGQMKKPGESMRLSCRASGYEFLNCPINWIRLAPGRRPEWMGWLKPRWGAVNYARKFQGRVTMTRDVYSDTAFLELRSLTSDDTAVYFCTRGKYCTARDYYNWDFEHWGRGAPVTVSS
VL: EIVLTQSPATLSLSPGETAIISCRTSQYGSLAWYQQRPGQAPRLVIYSGSTRAAGIPDRFSGSRWGADYNLSISNLESGDFGVYYCQQYEFFGQGTKVQVDI
IC80 [21]: 0.109 µg/mL | IC80 [22]: > 50 µg/mL | IC80 [23]: > 50 µg/mL | IC80 [24]: 0.039 µg/mL | IC80 [25]: > 50 µg/mL | IC80 [26]: 0.002 µg/mL | IC80 [27]: 0.299 µg/mL | IC80 [28]: 0.076 µg/mL | IC80 [29]: 9.05 µg/mL | IC80 [30]: 0.017 µg/mL | IC80 [31]: > 50 µg/mL | IC80 [32]: 0.004 µg/mL | IC80 [33]: 0.145 µg/mL | IC80 [34]: 0.623 µg/mL | IC80 [35]: 0.062 µg/mL | IC80 [36]: 0.084 µg/mL | IC80 [37]: 0.138 µg/mL | IC80 [38]: 0.13 µg/mL | IC80 [39]: 0.064 µg/mL | IC80 [40]: 0.099 µg/mL

B4: NIH45-46^G54W(HC), S28Y(LC) (antibody, V domains shown)
VH: QVRLSQSGGQMKKPGESMRLSCRASGYEFLNCPINWIRLAPGRRPEWMGWLKPRWGAVNYARKFQGRVTMTRDVYSDTAFLELRSLTSDDTAVYFCTRGKYCTARDYYNWDFEHWGRGAPVTVSS
VL: EIVLTQSPATLSLSPGETAIISCRTSQYGSLAWYQQRPGQAPRLVIYSGSTRAAGIPDRFSGSRWGADYNLSISNLESGDFGVYYCQQYEFFGQGTKVQVDI
IC50, pseudovirus neutralization [41]: 0.001 µg/mL | IC50, pseudovirus neutralization [1]: 0.278 µg/mL | IC50, pseudovirus neutralization [2]: 0.001 µg/mL | IC50, pseudovirus neutralization [42]: 0.002 µg/mL | IC50, pseudovirus neutralization [3]: 0.001 µg/mL | IC50, pseudovirus neutralization [4]: 0.015 µg/mL | IC50, pseudovirus neutralization [6]: 0.126 µg/mL | IC50, pseudovirus neutralization [7]: > 50 µg/mL | IC50, pseudovirus neutralization [43]: 0.022 µg/mL | IC50, pseudovirus neutralization [44]: 0.001 µg/mL | IC50, pseudovirus neutralization [9]: 0.091 µg/mL | IC50, pseudovirus neutralization [45]: 0.046 µg/mL | IC50, pseudovirus neutralization [46]: 0.004 µg/mL | IC50, pseudovirus neutralization [47]: 0.004 µg/mL | IC50, pseudovirus neutralization [48]: 0.14 µg/mL | IC50, pseudovirus neutralization [13]: 0.082 µg/mL | IC50, pseudovirus neutralization [49]: 15.2 µg/mL | IC50, pseudovirus neutralization [14]: 0.02 µg/mL | IC50, pseudovirus neutralization [50]: 44.3 µg/mL | IC50, pseudovirus neutralization [18]: 0.03 µg/mL | IC50, pseudovirus neutralization [19]: 0.012 µg/mL

B5: NIH45-46^G54F IgG (antibody, name in Kabat numbering, V domains shown)
VH: QVRLSQSGGQMKKPGESMRLSCRASGYEFLNCPINWIRLAPGRRPEWMGWLKPRFGAVNYARKFQGRVTMTRDVYSDTAFLELRSLTSDDTAVYFCTRGKYCTARDYYNWDFEHWGRGAPVTVSS
VL: EIVLTQSPATLSLSPGETAIISCRTSQSGSLAWYQQRPGQAPRLVIYSGSTRAAGIPDRFSGSRWGADYNLSISNLESGDFGVYYCQQYEFFGQGTKVQVDI
neutralization IC50 [1]: 0.4 µg/mL | neutralization IC50 [2]: 0.001 µg/mL | neutralization IC50 [3]: 0.004 µg/mL | neutralization IC50 [4]: 0.07 µg/mL | neutralization IC80 [5]: 0.026 µg/mL | neutralization IC50 [6]: 0.17 µg/mL | neutralization IC50 [7]: > 50 µg/mL | neutralization IC80 [8]: > 50 µg/mL | neutralization IC50 [9]: 0.08 µg/mL | neutralization IC80 [10]: 0.059 µg/mL | neutralization IC80 [11]: 0.047 µg/mL | neutralization IC80 [12]: 1.32 µg/mL | neutralization IC50 [13]: 0.1 µg/mL | neutralization IC50 [14]: 0.11 µg/mL | neutralization IC80 [15]: 0.135 µg/mL | neutralization IC80 [16]: 0.51 µg/mL | neutralization IC80 [17]: 3.01 µg/mL | neutralization IC50 [18]: 0.046 µg/mL | neutralization IC50 [19]: 0.03 µg/mL | neutralization IC50 [20]: 16 µg/mL
